According to article PMC3793302 (Developmental cell, 2004):

Molecular target: the molecule itself
Experiment: cross-linking

B1: C-TSK-Myc-His expressed in Xenopus embryos (natural protein, chick, UniProt Q65Z91 20-369, looked up)
chain: KTCFPGCHCEVESFGLFDSFSLTKVDCSGIGSHIVPVPIPLDTSYLDLSSNKLETINESMLTGPGYTTLVSLDLSYNNIAKISSTTFSRLRYLESLDLSHNSLEVLPEDCFSSSPLGDIDLSNNKLLDIALDVFASKGQGKPLNVDLSNNMLSKITRNHEKSIPNIQNLNLSGNRLTSVPNLQGIPLRYLNLDGNPLAKIEKGDFKGLKGLIHLSLSGLHDFRELSPYSFKELPALQVLDLSNNPNLRSLTAEVIFGLNSIQELNLSGTGVSSLPKTVLKYLPSLKSITLRKNIQCFKTIKEGQYHRQIGLTKLGLGAEELLWCKTPCPRPVCRCRDKPLQSAPQNLPTP
stoichiometry N: 2
